Assay results published in US20050282743A1, “Molecular interactions in cells” (Arbor Vita Corporation, priority 2001, published 2005).
Ends that are not written are not given here. Peptide text beside a SMILES is read from it. * marks the point of attachment. Biotin = O=C1N[C@H]2[C@H](CS[C@H]2CCCCC(=O)*)N1

Legend:
Assay in all cases: G' assay (10 uM PL peptide), results of TABLE 7 and TABLE 12
Assay type in all cases: binding
[1] = target: T1, PDZ protein (GST-PDZ fusion) (Homo sapiens, UniProt Q9C0E4)
T1 construct: made in house; host or cells: E. coli (DH5alpha, BL21 or JM109)
Outline: (§1)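 Biotin-PL peptide (N-term label), 10 uM vs GST-PDZ; protein 5 ug/ml by default. A450 nm binned: 1 = 0-1, 2 = 1-2, 3 = 2-3, 4 = 3-4, 5 = >4 on >2 repeats, 0 = no binding.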

[2] = target: T2, PDZ protein (GST-PDZ fusion) (Homo sapiens, UniProt P50479); conditions: PDZ LIM RIL, PDZ Domain 1
T2 construct: made in house; host or cells: E. coli (DH5alpha, BL21 or JM109)
T2 sequence (P50479 1-330): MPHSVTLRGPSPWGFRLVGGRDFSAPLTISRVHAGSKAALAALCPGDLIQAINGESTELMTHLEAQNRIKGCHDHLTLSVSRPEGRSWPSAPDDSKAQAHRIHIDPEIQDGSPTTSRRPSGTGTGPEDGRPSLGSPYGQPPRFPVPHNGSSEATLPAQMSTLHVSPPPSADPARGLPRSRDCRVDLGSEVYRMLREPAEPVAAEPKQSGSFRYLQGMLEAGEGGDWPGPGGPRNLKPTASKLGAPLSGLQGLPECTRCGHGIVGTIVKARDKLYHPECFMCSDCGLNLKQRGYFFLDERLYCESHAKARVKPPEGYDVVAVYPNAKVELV
Outline: as §1

[3] = target: T3, PDZ protein (GST-PDZ fusion) (Homo sapiens, UniProt Q96JY6); conditions: PDZ LIM-Mystique, PDZ Domain 1
T3 construct: made in house; host or cells: E. coli (DH5alpha, BL21 or JM109)
T3 sequence (Q96JY6 1-352): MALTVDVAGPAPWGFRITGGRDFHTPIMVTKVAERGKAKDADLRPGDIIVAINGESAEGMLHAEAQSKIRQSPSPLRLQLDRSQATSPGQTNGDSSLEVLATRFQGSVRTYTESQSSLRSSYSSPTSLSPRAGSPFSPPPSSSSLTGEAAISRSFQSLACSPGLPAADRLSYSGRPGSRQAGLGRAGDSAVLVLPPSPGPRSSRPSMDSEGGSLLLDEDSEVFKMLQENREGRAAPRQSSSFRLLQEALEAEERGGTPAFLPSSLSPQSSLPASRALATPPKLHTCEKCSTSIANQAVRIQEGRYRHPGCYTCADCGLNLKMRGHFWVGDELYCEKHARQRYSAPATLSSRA
Outline: as §1

[4] = target: T4, PDZ protein (GST-PDZ fusion) (Homo sapiens, UniProt O14641); conditions: PDZ DVL2, PDZ Domain 1
T4 construct: made in house; host or cells: E. coli (DH5alpha, BL21 or JM109)
T4 sequence (O14641 1-736): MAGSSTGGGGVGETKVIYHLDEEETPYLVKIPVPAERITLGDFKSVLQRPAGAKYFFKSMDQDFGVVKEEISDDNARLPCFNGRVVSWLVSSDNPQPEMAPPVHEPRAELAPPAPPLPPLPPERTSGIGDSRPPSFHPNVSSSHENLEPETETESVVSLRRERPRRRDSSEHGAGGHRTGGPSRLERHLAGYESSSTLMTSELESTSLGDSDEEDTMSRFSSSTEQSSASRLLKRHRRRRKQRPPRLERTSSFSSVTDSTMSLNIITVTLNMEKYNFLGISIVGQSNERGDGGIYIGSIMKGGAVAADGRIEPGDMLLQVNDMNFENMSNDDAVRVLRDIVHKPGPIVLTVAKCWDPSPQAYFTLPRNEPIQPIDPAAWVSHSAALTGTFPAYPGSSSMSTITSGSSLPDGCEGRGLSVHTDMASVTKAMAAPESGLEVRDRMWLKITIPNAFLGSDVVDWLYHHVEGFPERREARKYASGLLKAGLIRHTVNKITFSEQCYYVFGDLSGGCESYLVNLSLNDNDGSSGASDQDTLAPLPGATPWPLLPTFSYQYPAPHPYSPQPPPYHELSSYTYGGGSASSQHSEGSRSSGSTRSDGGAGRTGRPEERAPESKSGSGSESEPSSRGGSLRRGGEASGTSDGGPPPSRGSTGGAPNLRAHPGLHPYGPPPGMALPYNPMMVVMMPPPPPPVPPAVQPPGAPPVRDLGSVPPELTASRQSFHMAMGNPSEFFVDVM
Outline: as §1

[5] = target: T5, PDZ protein (GST-PDZ fusion) (Homo sapiens, UniProt Q96RT1); conditions: PDZ Erbin, PDZ Domain 1
T5 construct: made in house; host or cells: E. coli (DH5alpha, BL21 or JM109)
Outline: as §1

T5 sequence (Q96RT1 whole entry, the tested form may be a part): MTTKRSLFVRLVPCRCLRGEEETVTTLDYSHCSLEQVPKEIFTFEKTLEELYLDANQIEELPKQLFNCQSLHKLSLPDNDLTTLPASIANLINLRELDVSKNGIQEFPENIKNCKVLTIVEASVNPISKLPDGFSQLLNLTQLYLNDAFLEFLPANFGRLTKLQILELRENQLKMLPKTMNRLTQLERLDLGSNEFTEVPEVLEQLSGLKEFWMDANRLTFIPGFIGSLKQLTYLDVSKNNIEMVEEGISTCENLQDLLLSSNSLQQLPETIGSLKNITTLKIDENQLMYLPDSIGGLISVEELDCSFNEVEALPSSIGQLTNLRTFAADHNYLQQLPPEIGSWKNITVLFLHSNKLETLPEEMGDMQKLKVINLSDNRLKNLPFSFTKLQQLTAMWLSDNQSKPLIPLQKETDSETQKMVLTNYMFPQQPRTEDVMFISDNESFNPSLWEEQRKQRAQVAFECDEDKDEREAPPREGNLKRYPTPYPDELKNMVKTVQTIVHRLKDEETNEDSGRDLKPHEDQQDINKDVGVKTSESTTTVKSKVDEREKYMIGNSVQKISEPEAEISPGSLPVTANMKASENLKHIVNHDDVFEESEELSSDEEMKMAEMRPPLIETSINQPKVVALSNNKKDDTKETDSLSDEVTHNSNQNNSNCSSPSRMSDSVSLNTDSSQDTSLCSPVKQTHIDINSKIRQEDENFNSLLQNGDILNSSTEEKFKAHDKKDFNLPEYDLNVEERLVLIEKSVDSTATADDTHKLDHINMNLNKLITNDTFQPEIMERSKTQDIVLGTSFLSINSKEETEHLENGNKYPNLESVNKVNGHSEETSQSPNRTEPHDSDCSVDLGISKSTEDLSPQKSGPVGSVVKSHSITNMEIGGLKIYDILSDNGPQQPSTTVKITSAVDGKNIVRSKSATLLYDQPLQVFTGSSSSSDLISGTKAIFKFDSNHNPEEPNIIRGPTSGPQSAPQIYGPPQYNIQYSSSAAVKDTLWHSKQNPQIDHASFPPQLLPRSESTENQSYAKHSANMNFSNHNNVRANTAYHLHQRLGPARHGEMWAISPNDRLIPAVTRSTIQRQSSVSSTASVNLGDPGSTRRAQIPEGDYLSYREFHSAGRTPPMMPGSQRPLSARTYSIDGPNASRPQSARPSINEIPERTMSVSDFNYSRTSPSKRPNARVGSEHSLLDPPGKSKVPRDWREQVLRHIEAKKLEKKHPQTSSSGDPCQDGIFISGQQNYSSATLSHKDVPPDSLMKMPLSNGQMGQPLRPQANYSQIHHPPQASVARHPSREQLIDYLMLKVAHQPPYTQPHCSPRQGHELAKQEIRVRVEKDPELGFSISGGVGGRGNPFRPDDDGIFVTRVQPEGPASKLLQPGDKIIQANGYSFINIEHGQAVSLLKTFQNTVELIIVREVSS
T1 sequence (Q9C0E4 whole entry, the tested form may be a part): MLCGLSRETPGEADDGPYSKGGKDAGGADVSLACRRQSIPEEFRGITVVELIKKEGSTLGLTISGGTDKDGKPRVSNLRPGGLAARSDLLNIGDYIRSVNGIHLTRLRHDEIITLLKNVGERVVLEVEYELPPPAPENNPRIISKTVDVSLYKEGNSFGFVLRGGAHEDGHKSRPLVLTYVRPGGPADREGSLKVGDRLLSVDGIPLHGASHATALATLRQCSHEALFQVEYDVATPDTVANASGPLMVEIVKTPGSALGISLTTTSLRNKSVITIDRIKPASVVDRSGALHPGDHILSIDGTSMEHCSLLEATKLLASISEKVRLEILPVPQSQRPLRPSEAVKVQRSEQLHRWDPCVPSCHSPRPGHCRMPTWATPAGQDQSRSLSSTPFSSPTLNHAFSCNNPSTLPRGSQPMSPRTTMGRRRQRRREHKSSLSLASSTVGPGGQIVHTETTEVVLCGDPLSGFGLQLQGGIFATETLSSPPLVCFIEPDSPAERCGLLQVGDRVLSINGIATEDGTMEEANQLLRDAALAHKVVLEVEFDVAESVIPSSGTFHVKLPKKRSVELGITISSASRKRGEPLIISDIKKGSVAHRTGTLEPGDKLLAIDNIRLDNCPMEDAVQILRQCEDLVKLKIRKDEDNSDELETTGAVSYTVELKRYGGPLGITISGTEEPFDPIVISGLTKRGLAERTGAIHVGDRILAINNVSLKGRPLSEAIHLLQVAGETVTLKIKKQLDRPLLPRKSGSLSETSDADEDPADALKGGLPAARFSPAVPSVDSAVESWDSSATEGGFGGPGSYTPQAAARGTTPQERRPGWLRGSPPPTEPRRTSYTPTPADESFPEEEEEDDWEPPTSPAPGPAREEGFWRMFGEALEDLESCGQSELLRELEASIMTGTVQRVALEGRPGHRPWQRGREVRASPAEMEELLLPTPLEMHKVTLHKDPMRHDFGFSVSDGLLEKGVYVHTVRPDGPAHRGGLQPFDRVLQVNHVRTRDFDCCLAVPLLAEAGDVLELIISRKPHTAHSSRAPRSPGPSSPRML

Classification [2] | Classification [3] | Classification [4] | Compound | also measured
 |  | 1 (A450 nm 0-1) | KTMPAATYRLLTGQEQPVYL (Biotin-KTMPAATYRLLTGQEQPVYL) [MINT-3] | 
1 (A450 nm 0-1) |  |  | QATSRNGHSARQHVVADTEL (Biotin-QATSRNGHSARQHVVADTEL) [CD34] | 
 |  | 2 (A450 nm 1-2) | CC[C@H](C)[C@H](NC(=O)[C@H](Cc1ccc(O)cc1)NC(=O)[C@@H](NC(=O)[C@@H]1CCCN1C(=O)[C@H](CCC(N)=O)NC(=O)[C@H](CCC(=O)O)NC(=O)[C@H](CCC(N)=O)NC(=O)[C@H](C)NC(=O)[C@@H](NC(=O)[C@H](CC(C)C)NC(=O)[C@H](CC(C)C)NC(=O)[C@H](CCCNC(=N)N)NC(=O)[C@H](Cc1ccc(O)cc1)NC(=O)[C@H](CCSC)NC(=O)[C@H](C)NC(=O)[C@H](C)NC(=O)[C@@H]1CCCN1C(=O)[C@H](CCSC)NC(=O)[C@@H](NC(=O)[C@H](CCCCN)NC(=O)CCCC[C@@H]1SC[C@@H]2NC(=O)N[C@@H]21)[C@@H](C)O)[C@@H](C)O)C(C)C)C(=O)O [MINT-1] (Biotin-KTMPAAMYRLLTAQEQPVYI-OH; C-terminus assumed) | 
 |  | 2 (A450 nm 1-2) | ALVLIAFCIIRRRPSAYQAL (Biotin-ALVLIAFCIIRRRPSAYQAL) [CD68] | Classification ([1]; PDZ KIAA1719, PDZ Domain 3): 1 (A450 nm 0-1); Classification ([1]; PDZ KIAA1719, PDZ Domain 6): 1 (A450 nm 0-1)
 |  | 2 (A450 nm 1-2) | KTMPAAMFRLLTGQETPLYI (Biotin-KTMPAAMFRLLTGQETPLYI) [MINT-2] | 

Further lines, the compound ahead of its results:

Compound | Classification [2] | Classification [3] | Classification [4] | also measured
CKR5_HUMAN (ERASSVYTRSTGEQEISVGL) |  |  |  | Classification ([1]; PDZ KIAA1719, PDZ Domain 2): 1 (A450 nm 0-1); Classification ([1]; PDZ KIAA1719, PDZ Domain 5): 1 (A450 nm 0-1)
VHDAESSDEDGYDWGPATDL (Biotin-VHDAESSDEDGYDWGPATDL) [zona occludens 3 (ZO-3)] | 2 (A450 nm 1-2) | 2 (A450 nm 1-2) |  | 
CC[C@H](C)[C@H](NC(=O)[C@H](Cc1ccc(O)cc1)NC(=O)[C@H](CC(C)C)NC(=O)[C@H](CCC(N)=O)NC(=O)[C@H](Cc1c[nH]cn1)NC(=O)[C@H](CO)NC(=O)[C@H](C)NC(=O)[C@H](CC(C)C)NC(=O)[C@@H](NC(=O)[C@H](CC(=O)O)NC(=O)[C@H](CCSC)NC(=O)[C@H](Cc1ccccc1)NC(=O)[C@@H]1CCCN1C(=O)[C@H](CCCNC(=N)N)NC(=O)[C@@H](NC(=O)[C@H](CC(C)C)NC(=O)[C@H](CC(N)=O)NC(=O)[C@H](CC(=O)O)NC(=O)[C@@H](NC(=O)[C@H](CO)NC(=O)CCCC[C@@H]1SC[C@@H]2NC(=O)N[C@@H]21)[C@@H](C)O)C(C)C)[C@@H](C)O)C(=O)O [presenilin-2] (Biotin-STDNLVRPFMDTLASHQLYI-OH; C-terminus assumed) |  |  | 1 (A450 nm 0-1) | 
PYSELNYETSHYPASPDSWV (Biotin-PYSELNYETSHYPASPDSWV) [catenin - delta 2] | 2 (A450 nm 1-2) | 5 (A450 nm of 4 more than 2× repeated) |  | Classification [5]: 4 (A450 nm 3-4)
TQGFPGPATWRRISSLESEV | 5 (A450 nm of 4 more than 2× repeated) | 4 (A450 nm 3-4) |  | Classification [5]: 4 (A450 nm 3-4)
A2AA_HUMAN (modified) (Biotin-HDFRRAFKKILARGDRKRIV; not fully specified) |  | 1 (A450 nm 0-1) |  | Classification ([1]; PDZ KIAA1719, PDZ Domain 4): 3 (A450 nm 2-3)
CC[C@H](C)[C@H](NC(=O)[C@H](CO)NC(=O)[C@@H](NC(=O)[C@H](Cc1ccccc1)NC(=O)[C@H](CO)NC(=O)CCCC[C@@H]1SC[C@@H]2NC(=O)N[C@@H]21)[C@@H](C)O)C(=O)N[C@@H](CC(C)C)C(=O)N[C@H](C(=O)N[C@@H](CS)C(=O)N[C@@H](Cc1c[nH]cn1)C(=O)N[C@@H](CCC(N)=O)C(=O)N[C@@H](CCCNC(=N)N)C(=O)N[C@@H](CCCNC(=N)N)C(=O)N[C@H](C(=O)N[C@@H](CCC(N)=O)C(=O)N[C@@H](CCCNC(=N)N)C(=O)N[C@@H](CCCCN)C(=O)N[C@@H](CCC(=O)O)C(=O)N[C@H](C(=O)N[C@H](C(=O)N[C@@H](C)C(=O)O)C(C)C)[C@@H](C)O)[C@@H](C)O)[C@@H](C)O [GluR5-2 (rat)] |  |  |  | Classification ([1]; PDZ KIAA1719, PDZ Domain 3): 1 (A450 nm 0-1)
LASKSAEEGKQIPDSLSTDL (Biotin-LASKSAEEGKQIPDSLSTDL) [Dock2] | 1 (A450 nm 0-1) | 1 (A450 nm 0-1) |  | 
CC(C)C[C@H](NC(=O)[C@H](C)NC(=O)[C@H](CO)NC(=O)CNC(=O)[C@@H](NC(=O)CCCC[C@@H]1SC[C@@H]2NC(=O)N[C@@H]21)[C@@H](C)O)C(=O)N[C@@H](CCC(N)=O)C(=O)N[C@@H](C)C(=O)N[C@@H](Cc1c[nH]c2ccccc12)C(=O)N[C@@H](CCCNC(=N)N)C(=O)N[C@@H](Cc1c[nH]cn1)C(=O)N[C@H](C(=O)N[C@@H](CO)C(=O)N[C@@H](CCCNC(=N)N)C(=O)N[C@@H](CCC(N)=O)C(=O)N[C@@H](C)C(=O)N[C@H](C(=O)N[C@@H](CCC(=O)O)C(=O)N[C@@H](CO)C(=O)N[C@H](C(=O)N[C@H](C(=O)O)C(C)C)[C@@H](C)O)[C@@H](C)O)[C@@H](C)O [HPV E6 #66 (modified)] (Biotin-TGSALQAWRHTSRQATESTV-OH; C-terminus assumed) |  |  |  | Classification [5]: 1 (A450 nm 0-1)
CC(C)C[C@H](NC(=O)[C@H](CC(=O)O)NC(=O)[C@H](CO)NC(=O)[C@H](CCC(=O)O)NC(=O)CNC(=O)[C@H](Cc1ccc(O)cc1)NC(=O)[C@H](CC(C)C)NC(=O)[C@H](C)NC(=O)[C@H](CO)NC(=O)[C@H](CO)NC(=O)[C@H](Cc1ccccc1)NC(=O)[C@H](C)NC(=O)[C@H](C)NC(=O)[C@H](Cc1ccc(O)cc1)NC(=O)[C@H](CC(=O)O)NC(=O)[C@H](CC(C)C)NC(=O)[C@H](C)NC(=O)CNC(=O)[C@@H]1CCCN1C(=O)[C@@H](NC(=O)CCCC[C@@H]1SC[C@@H]2NC(=O)N[C@@H]21)C(C)C)C(=O)O [a-actinin 2] (Biotin-VPGALDYAAFSSALYGESDL-OH; C-terminus assumed) | 5 (A450 nm of 4 more than 2× repeated) | 5 (A450 nm of 4 more than 2× repeated) |  | Classification [5]: 1 (A450 nm 0-1)
A2AC_HUMAN (Modified) (Biotin-DFRPSFKHILFRRARRGFRQ; not fully specified) |  |  | 3 (A450 nm 2-3) | Classification ([1]; PDZ KIAA1719, PDZ Domain 3): 5 (A450 nm of 4 more than 2× repeated)
CC[C@H](C)[C@H](NC(=O)[C@H](C)NC(=O)[C@H](CC(C)C)NC(=O)[C@H](Cc1c[nH]c2ccccc12)NC(=O)[C@H](Cc1c[nH]cn1)NC(=O)[C@H](CCC(N)=O)NC(=O)[C@H](CC(C)C)NC(=O)[C@H](CCC(N)=O)NC(=O)[C@H](Cc1ccccc1)NC(=O)[C@H](CCC(N)=O)NC(=O)[C@H](CCCNC(=N)N)NC(=O)[C@@H](NC(=O)[C@H](CC(=O)O)NC(=O)[C@H](CCCNC(=N)N)NC(=O)[C@H](CCC(N)=O)NC(=O)[C@H](C)NC(=O)[C@@H](NC(=O)[C@H](CC(C)C)NC(=O)[C@H](Cc1c[nH]cn1)NC(=O)[C@H](Cc1c[nH]cn1)NC(=O)CCCC[C@@H]1SC[C@@H]2NC(=O)N[C@@H]21)C(C)C)[C@@H](C)CC)C(=O)O [noradrenaline transporter] (Biotin-HHLVAQRDIRQFQLQHWLAI-OH; C-terminus assumed) |  |  |  | Classification ([1]; PDZ KIAA1719, PDZ Domain 5): 2 (A450 nm 1-2); Classification ([1]; PDZ KIAA1719, PDZ Domain 6): 2 (A450 nm 1-2)
LNETTETQRTLLNGDLQTSI (Biotin-LNETTETQRTLLNGDLQTSI) [SSTR2 (somatostatin recepor 2)] |  |  |  | Classification ([1]; PDZ KIAA1719, PDZ Domain 6): 1 (A450 nm 0-1)
